Measurements: publication PMC11052993, “Functional implication of the homotrimeric multidomain vacuolar sorting receptor 1 (VSR1) from Arabidopsis thaliana” (Scientific Reports, 2024)

Molecular target: the molecule itself
Experiment: crystal structure; space group P2(1)3, one molecule in the asymmetric unit, trimer built by crystallographic three-fold symmetry; 3.5 Å dataset, molecular replacement with PDB 4TJV

B1: luminal domain of vacuolar sorting receptor 1 (VSR1) from Arabidopsis thaliana, residues 1 to 560 (domain or fragment, UniProt P93026 23-560, looked up)
chain: VEKNNLKVTSPDSIKGIYECAIGNFGVPQYGGTLVGTVVYPKSNQKACKSYSDFDISFKSKPGRLPTFVLIDRGDCYFTLKAWIAQQAGAAAILVADSKAEPLITMDTPEEDKSDADYLQNITIPSALITKTLGDSIKSALSGGDMVNMKLDWTESVPHPDERVEYELWTNSNDECGKKCDTQIEFLKNFKGAAQILEKGGHTQFTPHYITWYCPEAFTLSKQCKSQCINHGRYCAPDPEQDFTKGYDGKDVVVQNLRQACVYRVMNDTGKPWVWWDYVTDFAIRCPMKEKKYTKECADGIIKSLGIDLKKVDKCIGDPEADVENPVLKAEQESQIGKGSRGDVTILPTLVVNNRQYRGKLEKGAVLKAMCSGFQESTEPAICLTEDLETNECLENNGGCWQDKAANITACRDTFRGRLCECPTVQGVKFVGDGYTHCKASGALHCGINNGGCWRESRGGFTYSACVDDHSKDCKCPLGFKGDGVKNCEDVDECKEKTVCQCPECKCKNTWGSYECSCSNGLLYMREHDTCIGSGKVG
modifications: N-glycosylation at Asn289 (two N-acetylglucosamine)
notes: signal peptide in the construct; vacuolar sorting receptor 1 (VSR1), Arabidopsis thaliana, luminal part, residues 1 to 560; the model of the structure runs from Phe21 to Ala465 (Ser120-Asp137 disordered); Trimer by crystallographic three-fold symmetry; one molecule in the asymmetric unit; also called AtVSR1; full-length VSR1 luminal domain
  stoichiometry N: 3
